How the values were obtained:
[1] = molecular target: T1, GST-PS1/1-81N (UniProt P49768 1-81); experiment: GST pull-down of [35S]-labeled C-terminal APP-stubs expressed in neurons
T1 construct: range 1-81; Lacks the first transmembrane domain of PS1; also called PS1 N-terminus fused to GST; GST-fused with the N-terminus of PS1; not shown: glutathione S-transferase (GST) encoded by vector pGEX4T-1 (Pharmacia Biotech)

[2] = molecular target: T2, GST alone (UniProt P08515 1-218 = GST); experiment: GST pull-down of [35S]-labeled C-terminal APP-stubs expressed in neurons; data not shown
T2 construct: Negative control, immobilized on glutathione beads; also called GST-beads

[3] = molecular target: T1, GST-PS1/1-81N; experiment: GST pull-down of in vitro translated [35S]-labeled TLN constructs, autoradiogram
Procedure: (§1) Part C. Total: autoradiogram of the translated, [³⁵S]-methionine labeled TLN constructs used for the binding reaction. Similar amounts of input material are used. Note the tendency of the intracellular domain (IC) to oligomerize.
(§2) Part D. Mapping of the binding domain of TLN. […] Radiolabeled translated products (Total) were assayed for binding to GST-PS1/39C (third panel), GST-PS1/1-81N (fourth panel) or GST alone (not shown). Binding becomes virtually abolished when the N-terminal 5 amino acids (Val⁸²⁹-Trp⁸³³) of the transmembrane region of TLN are deleted (construct 8 in top panel).

[4] = molecular target: T2, GST alone; experiment: as above
Procedure: as §1, §2

[5] = molecular target: T3, GST-TLN/256C (mouse, UniProt Q60625 662-917); experiment: GST pull-down from 1% Triton-X100 or 2% CHAPS mouse brain extracts, western blot
T3 construct: Immobilized on glutathione beads; not shown: glutathione S-transferase (GST) encoded by vector pGEX4T-1 (Pharmacia Biotech)
T3 sequence (looked up): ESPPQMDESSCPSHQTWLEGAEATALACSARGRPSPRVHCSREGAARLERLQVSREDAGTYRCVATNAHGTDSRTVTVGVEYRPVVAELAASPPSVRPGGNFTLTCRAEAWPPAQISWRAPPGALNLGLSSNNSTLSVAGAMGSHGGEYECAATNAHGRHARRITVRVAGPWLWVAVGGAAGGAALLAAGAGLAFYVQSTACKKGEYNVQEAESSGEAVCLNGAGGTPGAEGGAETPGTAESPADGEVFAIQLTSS
Procedure: GST alone was used as a negative control. PS1-CTF was predominantly detected in the bound fraction of low salt 1% Triton-X100 brain extracts. […] The difference between the intensity of the bands is due to different affinities of the pabs as shown for the crude extract (“Total” in first lane). Binding was largely abolished at high salt concentrations (400 mM).
Murine cortices were homogenized in 250 mM sucrose containing 10 mM Tris-HCL pH 7.4, 1 mM EDTA (De Strooper et al., 1999). Nuclei and tissue fragments were removed by low speed centrifugation. Microsomal membranes pelleted by high-speed centrifugation (50K rpm, 1 hour) were resuspended in LSB containing 1% Triton X-100 or 2% CHAPS. Aliquots (1 mg/ml) of the cleared extracts (55K rpm, 1 hour) were incubated overnight (4° C.) with immobilized GST fusion proteins. Beads were washed in low salt extraction buffer containing 0.5% Triton X-100 and bound proteins were analyzed by SDS-PAGE and western blotting.

[6] = molecular target: T4, TLN/256C clone of the pAD-GAL4 mouse hippocampal two-hybrid library (mouse, UniProt Q60625 662-917); experiment: yeast two-hybrid screen, His+ selection and β-galactosidase filter lift
T4 sequence (looked up): T3 sequence (looked up)
Text: Endogenous TLN could be precipitated from Triton X-100 brain extracts using recombinant GST fusion proteins containing the 39 C-terminal residues of PS1 or PS2 (PS1/39C, FIG. 1, Part B). The binding was salt dependent (FIG. 1, Part C). […] We detected a weak signal for endogenous holo-APP only after long exposure (FIG. 1, Part D). […] Although the PS1-NTF/ CTF is Triton-X100 sensitive, minor amounts of PS1-NTF were also detected in precipitates of Triton-X100-extracted membranes. In the presence of 2% CHAPS however, both PS1-NTF and PS1-CTF were recovered on the beads as both fragments remain non-covalently bound under these conditions (Capell et al., 1998). […] Since CHAPS is less denaturing than TX100, it is possible that other proteins of the complex cause steric hindrance under these conditions (Capell et al., 1998).
Mouse hippocampal mRNA was used to generate a primary lambda library that was converted to a pAD-GAL4 plasmid library by in vivo mass excision (HybriZAP, Stratagene). The sequence coding for the C-terminal eight amino acids of PS1 was cloned into the pBD-GAL4 vector. Yeast was transformed simultaneously with the bait and the library plasmids using the lithium-acetate method (Gietz et al., 1995). His⁺ colonies were restreaked onto selection agar plates and assayed for lacZ gene expression by the β-galactosidase filter lift assay.

T2 sequence (P08515 whole entry): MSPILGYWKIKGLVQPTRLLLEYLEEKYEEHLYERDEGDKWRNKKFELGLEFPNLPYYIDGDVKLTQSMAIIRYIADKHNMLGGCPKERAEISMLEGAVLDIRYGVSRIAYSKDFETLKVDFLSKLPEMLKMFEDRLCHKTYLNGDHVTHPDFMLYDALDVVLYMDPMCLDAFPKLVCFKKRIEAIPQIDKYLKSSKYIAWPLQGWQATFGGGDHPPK

B1: APP-C59 (other, UniProt P05067 712-770, looked up)
chain: IATVIVITLVMLKKKQYTSIHHGVVEVDAAVTPEERHLSKMQQNGYENPTYKFFEQMQN
notes: domain: γ40-cleaved C-terminal fragment (APP-C59); also called γ40-cleaved cytoplasmic domain of APP
binding result [1]: no binding
binding result [2]: no binding

B2: intracellular domain (IC) of TLN (in vitro translated) (other, mouse, UniProt Q60625 855-917, looked up)
chain: AFYVQSTACKKGEYNVQEAESSGEAVCLNGAGGTPGAEGGAETPGTAESPADGEVFAIQLTSS
notes: domain: intracellular domain (IC); also called IC domain of TLN
binding result [3]: no binding
binding result [4]: no binding

B3: BAP31 (endogenous, mouse brain extract) (other, UniProt Q61335 2-245, looked up)
chain: SLQWTTVATFLYAEVFAVLLLCIPFISPKRWQKVFKSRLVELVVTYGNTFFVVLIVILVLLVIDAVREILKYDDVTEKVNLQNNPGAMEHFHMKLFRAQRNLYIAGFSLLLSFLLRRLVTLISQQATLLASNEAFKKQAESASEAAKKYMEENDQLKKGAAEDGDKLDIGNTEMKLEENKSLKNDLRKLKDELASTKKKLEKAENEALAMQKQSEGLTKEYDRLLEEHAKLQASVRGPSVKKEE
binding result [5]: no binding

B4: ductin (endogenous, mouse brain extract) (other, UniProt P63082 1-155, looked up)
chain: MADIKNNPEYSSFFGVMGASSAMVFSAMGAAYGTAKSGTGIAAMSVMRPELIMKSIIPVVMAGIIAIYGLVVAVLIANSLTDGITLYRSFLQLGAGLSVGLSGLAAGFAIGIVGDAGVRGTAQQPRLFVGMILILIFAEVLGLYGLIVALILSTK
binding result [5]: no binding

B5: PS1-C8 bait (C-terminal eight amino acids of PS1 in pBD-GAL4) (other, UniProt P04386 1-147, looked up)
chain: MKLLSSIEQACDICRLKKLKCSKEKPKCAKCLKNNWECRYSPKTKRSPLTRAHLTEVESRLERLEQLFLLIFPREDLDMILKMDSLQDIKALLTGLFVQDNVNKDAVTDRLASVETDMPLTLRQHRISATSSSEESSNKGQRQLTVSLAFHQFYI
binding result [6]: binds

— patent US20040115734A1 (VLAAMS INTERUNIVERSITAIR INSTITUUT VOOR BIOTECHNOLOGIE VZW, published 2004)
